Tests used:
[1] = target: recombinant soluble urokinase plasminogen activator receptor (suPAR, aa 1-279) (UniProt Q03405); assay: direct binding assay (format and antigen form not stated)
[2] = target: recombinant soluble urokinase plasminogen activator receptor (suPAR, aa 1-279) (UniProt Q03405); assay: ELISA on suPAR, bound Biotin-ATN-658 detected with HRP-streptavidin

Kd [1]: 1 nM | EC50 (read off the curve) [2]: 0.2 nM
Substance: mAb ATN-658 (antibody)

Source: US20090180952A1
